Reference: patent US20120329067A1

Columns and labels:
[1] = target: ZFN with wild-type FokI cleavage domain carrying R487D (DD architecture); test: cell-based or functional assay
[2] = target: ZFN with wild-type FokI cleavage domain carrying the DAMQS interface (DS architecture); test: cell-based or functional assay

B1: ZFN with wild-type FokI cleavage domain carrying D483R (RR architecture) (enzyme, part only; not given: zinc finger domain and linker, part only)
chain, part: QLVKSELEEKKSELRHKLKYVPHEYIELIEIARNSTQDRILEMKVMEFFMKVYGYRGKHLGGSRKPDGAIYTVGSPIDYGVIVDTKAYSGGYNLPIGQAREMQRYVEENQTRNKHINPNEWWKVYPSSVTEFKFLFVSGHFKGNYKAQLTRLNHITNCNGAVLSVEELLIGGEMIKAGTLTLEEVRRKFNNGEINF
B1 showed a stimulation of mutagenesis in an EGFP reporter cell line (P3/E4 cleavage site), relative to wt (fraction of wt activity) [1] of 0.167 and a stimulation of mutagenesis in an EGFP reporter cell line (P3/E4 cleavage site), relative to wt (fraction of wt activity) [2] of 0.33.
